Stoichiometry N (hACE2 molecules per S trimer) data for one substance are collected here from publication PMC12363175.

The assay has as its target CX1 S ectodomain with stabilizing mutations. Kind of assay: AUC.

Chain of peptidase domain (PD) of hACE2 (Q9BYF1 19-615): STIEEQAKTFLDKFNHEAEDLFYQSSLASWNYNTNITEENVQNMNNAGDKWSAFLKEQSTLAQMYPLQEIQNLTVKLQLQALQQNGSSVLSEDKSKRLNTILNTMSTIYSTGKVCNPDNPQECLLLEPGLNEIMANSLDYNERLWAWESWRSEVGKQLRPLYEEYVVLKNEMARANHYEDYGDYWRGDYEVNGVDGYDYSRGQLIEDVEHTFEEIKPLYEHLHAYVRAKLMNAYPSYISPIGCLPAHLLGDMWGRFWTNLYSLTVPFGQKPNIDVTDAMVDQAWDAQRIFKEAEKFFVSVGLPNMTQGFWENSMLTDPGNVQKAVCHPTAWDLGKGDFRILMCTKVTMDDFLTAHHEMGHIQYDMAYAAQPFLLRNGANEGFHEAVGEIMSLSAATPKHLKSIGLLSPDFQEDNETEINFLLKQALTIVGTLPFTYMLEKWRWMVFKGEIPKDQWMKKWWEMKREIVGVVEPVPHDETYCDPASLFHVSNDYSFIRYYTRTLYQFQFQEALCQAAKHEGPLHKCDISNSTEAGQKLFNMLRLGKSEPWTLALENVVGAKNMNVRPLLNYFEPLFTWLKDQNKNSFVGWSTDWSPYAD

As for “peptidase domain (PD) of hACE2 (from UniProt Q9BYF1 19-615) (domain or fragment)”, the stoichiometry N (hACE2 molecules per S trimer) stood at 2.
